Results from patent US20210009673A1, “METHODS FOR REGULATING BREAST CANCERS” (priority 2018, published 2021).

Tests used:
[1] = system: β-catenin; experiment: β-catenin import into nuclei of HUVS cells (Western blot of nuclear extracts); type: cell-based, human
Procedure: FIG. 13: FIG. 13 illustrates: (A) human umbilical vein stromal cells not stimulated or stimulated for 60 minutes with 1, 10, 25, 50, 100 and 200 ng/ml of PTN were used to isolate their nuclei and prepare lysates that were analyzed in Western blots probed with anti-β-catenin antibodies (upper panel) and anti-Orc-2 antibodies (lower panel). In (B), human umbilical vein stromal cells not stimulated or stimulated with 100 ng/ml of PTN for 5, 15, 30, 60 minutes were used to isolate their nuclei and prepare lysates that were analyzed in Western blots probed with anti-β-catenin antibodies (upper panel) and anti-Orc-2 antibodies (lower panel).
Cells at confluence were washed with PBS ×2 and incubated for 10 minutes in a lysis buffer containing 100 mM HEPES pH 7.9, 100 mM KCl, […], 1 mM DTT, Complete EDTA-free Protease Inhibitor Cocktail (Roche, Indianapolis, Ind.) and 0.04% IGEPAL (Sigma-Aldrich Co. Ltd, Poole, Dorset, UK). […] Samples were centrifuged and the supernatant nuclear extract was collected and analyzed in Western-blots as described below. […] It was detected with anti-Orc2 antibodies; tubulin was used to mark cytosolic fractions and detected with anti-tubulin antibodies. Samples of the nuclear fractions were used only if tubulin was not detected. […]

[2] = system: EGFR; experiment: tyrosine phosphorylation of EGFR in HUVS cells; type: cell-based, human
Procedure: FIG. 10: FIG. 10 illustrates: (A), HUVS cells were stimulated with PTN for 2, 5, and 15 minutes. Cell lysates were used to immunoprecipitate EGFR and the immunoprecipitates were analyzed in Western blots probed with anti-phosphotyrosine antibodies. In (B), Lysates from PTN-stimulated HUVS cells that express EGFR were incubated with GST-RPTPβ/ζ D1, GST-RPTPβ/ζ D1 (C1932S), and GST-RPTPβ/ζ D1 (D1900A), a “substrate trap” mutant, which captures the substrate phosphoryl-intermediate in the active site of RPTPβ/ζ with high affinity and specificity. The proteins captured were analyzed in Western blots probed with anti-EGFR antibodies and separately with anti-GST antibodies. In (C), HUVS cells were co-transfected with a full-length EGFR and the vector pC4-Fv1E encoding the Fv domain of FKBP12 needed for enforced dimerization induced by AP20187 (Clackson, Yang et al. 1998) in frame with the intracellular domain of RPTPβ/ζ. AP20187 (2 μM) enforced homodimerization of RPTPβ/ζ and stimulated increase in tyrosine phosphorylation of EGFR 2′, 5′, 10′, and 20′ after stimulation compared with control cells transfected with EGFR alone. (D) A retroviral vector (pSM2) encoding shRNA to “knock down” RPTPβ/ζ was tested in HUVS cells that express endogenous RPTPβ/ζ and EGFR. The cells were stimulated with PTN and cell lysates were used to prepare immunoprecipitates with anti-EGFR antibodies and the immunoprecipitates analyzed in Western blots probed with anti-phosphotyrosine antibodies.
Cell lysates prepared in a lysis buffer containing 50 mM Tris, 150 mM NaCl pH 7.5, 1% NP40, 0.25% sodium deoxycholate, 0.1% SDS, Complete EDTA-free Protease Inhibitor Cocktail (Roche, Indianapolis, Ind.), and 2 mM sodium orthovanadate were pre-cleared by incubation with 2 μg antibodies followed by one hour incubation with protein G-agarose beads. The beads were washed 4 times in the same lysis buffer, eluted in loading buffer containing 240 mM Tris pH 6.8, 40% glycerol, 20% SDS, 2.5% β-mercaptoethanol and 0.01% bromophenol blue and analyzed in Western blots probed with different antibodies as individually described.
PI3K also is activated by an activated Epidermal Growth Factor Receptor (EGFR). We therefore investigated the possibility EGFR is implicated in the translocation of β-catenin to nucleus in PTN-stimulated cells. HUVS were stimulated with PTN for 2, 5, and 15 minutes. Lysates from these cells were immunoprecipitated with anti-EGFR antibodies and the immunoprecipitates were analyzed in Western blots probed with anti-phosphotyrosine antibodies. Tyrosine phosphorylation of EGFR was increased about 5.8-fold at two minutes after HUVS cells were stimulated with PTN, about 11-fold at 5 minutes, and about 5-fold 15 minutes after stimulation with PTN (FIG. 10A).
To establish whether phosphorylation of EGFR is dependent on enforced dimerization of RPTPβ/ζ, which is the consequence of the interaction of PTN with RPTPβ/ζ, HUVS cells were then co-transfected with a full-length EGFR and the vector pC4-Fv1 E. The vector pC4-Fv1 E encodes the Fv domain of FKBP12 in frame with the intracellular domain of RPTPβ/ζ; it effectively enforces dimerization of RPTPβ/ζ when cells are stimulated with AP20187. AP20187 (2 μM) was added to HUVS cells that expressed full-length EGFR and pC4-Fv1 E as above. […]

B1: pleiotrophin (protein, UniProt P21246 33-168, looked up)
Pleiotrophin: GKKEKPEKKVKKSDCGEWQWSVCVPTSGDCGLGTREGTRTGAECKQTMKTQRCKIPCNWKKQFGAECKYQFQAWGECDLNTALKTRTGSLKRALHNAECQKTVTISKPCGKLTKPKPQAESKKKKKEGKKQEKMLD
[1]; 1-200 ng/ml PTN, 5-60 minutes
  β-catenin in nuclei: concentration and time-dependent increase
[1]; 60 minutes
  PTN concentration at which increase in nuclear β-catenin was seen: 10 ng/mL
[2]; 5 minutes after PTN
  increase in tyrosine phosphorylation of EGFR: about 11 fold
[2]; 15 minutes after PTN
  increase in tyrosine phosphorylation of EGFR: about 5 fold
[2]; RPTPβ/ζ knocked down with shRNA
  tyrosine phosphorylation of EGFR: failed to stimulate
[2]; cells transfected with pSM2 control vector
  increase in tyrosine phosphorylation of EGFR: ~5 fold
[2]; two minutes after PTN
  increase in tyrosine phosphorylation of EGFR: about 5.8 fold
